Measurements from paper PMC11421798, “Subfunctionalization of NRC3 altered the genetic structure of the Nicotiana NRC network” (PLOS Genetics, 2024).

Target: the molecule itself
Test: native gel or EMSA; BN-PAGE (NativePAGE 4-16% Bis-Tris) of 1% digitonin extracts of nrc2/3/4_KO N. benthamiana leaves at 2 dpi; NRC3 variant co-expressed with Rpi-blb2, without AVRblb2

Protein	stoichiometry N
N^L21ENN (NbNRC3c with L21E) (natural protein, N. benthamiana, UniProt A0A5J6DCA3 1-888, looked up, NRC3 (NbNRC3c) of Nicotiana benthamiana with L21E in the CC domain; L21E is named only in the methods of the BN-PAGE; the results call this protein NNN; also called NNN (in the BN-PAGE); source: nrc2/3/4_KO N. benthamiana leaves, agroinfiltrated, in digitonin extract) MADVAADVAVKFLVENLMQLEIDNADLIIGIKGEVENLLQDLNDFNAFLKQAAKSRRDNEVLKSLVKKIRKVVNDAEDSIDKFVIEAKRHDDKNKFAQWFHLTHVARAKGVADEIKTIRERVKEIRQNDAYGLQAITSYDNFNQGAQERKVPVVEEDDVVGFDDEAKTVIDRLIGGSDYVVPVVGMPGLGKTTLAYKIFKDSTVEYEFFNRIWVYVSQSFNRREIFLNIISKFTRNTKQYHDTPEEELANEIKELLGKGGKYLVVLDDVWTREAWDRIKIAFPNNNKRNRVLMTTRQNNVAKSCNDKPHDLKFLTENESWELLEKRVFHKEKCPFELELPGKSIAKKCRGLPLAIVVIAGALIGKGKTTREWELVADSVGEHLINRDPENCKKLVQMSYDRLPYDLKACFLYCGAFPGGSEISAQKLICLWIAEGFIQYQGPLTLEDIAEDHLNDLVNRNLVMVMKRSSSGQIKTCRVHDMLHEFCRHEAMMEENLFQEIKRGQEHSFPEKQELASYRRLCIHSSVSEFLSTKPFAEHVRSFLCFASKKFEMPLGEIPAIPRAFPLLRVLDAESIKFSRFSREFFKLFHLRYIAFSTDSIMTIPTNIGNLWNVQTLIIETQQGTLDIKADIWNMTRLRHVCINASATLPSPKRPKSSKDNLVNRCLQTLSTIAPECCTAEVFTRTPNLKKLGVRGKIDALLETSKDGSSSGLFSNIGKLDCLEKLKLVNDTRQSRKQLHLPPAYIFPQKLKKLTLIDTWFEWKDMSILGLLEYLEVLKLKENAFRGQSWEPEDSGFPRLQVLWIERTDLSSWKASSGNFPRLKCLVLIACDNLKELPAELADVENLQLMELQSTSVSAAKSARAILKKKQQKVGSGFKLSVFPPDLGL	2
N^L21… (… with L21E) (natural protein, N. benthamiana, UniProt A0A5J6DCA3 1-888, looked up, L21E is named only in the methods of the BN-PAGE; source: nrc2/3/4_KO N. benthamiana leaves, agroinfiltrated, in digitonin extract) MADVAADVAVKFLVENLMQLEIDNADLIIGIKGEVENLLQDLNDFNAFLKQAAKSRRDNEVLKSLVKKIRKVVNDAEDSIDKFVIEAKRHDDKNKFAQWFHLTHVARAKGVADEIKTIRERVKEIRQNDAYGLQAITSYDNFNQGAQERKVPVVEEDDVVGFDDEAKTVIDRLIGGSDYVVPVVGMPGLGKTTLAYKIFKDPKVEYEFFNRIWVYVSQSFKRREIFLNIISKFTRNTKQYHDTPEEELANEIKELLGKGGKYLVVLDDVWTREAWDRIKIAFPNNNKRNRVLMTTRQNNVAKSCNDKPHDLKFLTENESWELLEKRVFHKEKCPFELELPGKSIAKKCRGLPLAIVVIAGALIGKGKTTREWELVADSVGEHLINRDPENCKKLVQMSYDRLPYDLKACFLYCGAFPGGSEISAQKLICLWIAEGFIQYQGPLTLEDIAEDHLNDLVNRNLVMVMKRSSSGQIKTCRVHDMLHEFCRHEAMMEENLFQEIKRGQEHSFPEKQELASYRRLCIHSSVSEFLSTKPFAEHVRSFLCFASKKFEMPLGEIPAIPRAFPLLRVLDAESIKFSRFSREFFKLFHLRYIAFSTDSIMTIPTNIGNLWNVQTLIIETQQGTLDIKADIWNMTRLRHVCTNASATLPSPKRPKSSKDNLVNRCLQTLSTIAPECCTAEVFTRTPNLKKLGVRGKIDALLETSKDGSSSGLFSNIGKLDCLEKLKLVNDTRQSRKQLHLPPAYIFPQKLKKLTLIDTWFEWKDMSILGLLEYLEVLKLKENAFRGQSWEPEDSGFPRLQVLWIERTDLSSWKASSGNFPRLKHLVLIACDKLKELPAELADVENLQLMELQSTSVSAAKSARAILKKKQQKVGSGFKLSVFPPDLGL	2
